From patent US20050164945A1, “Endotheliase-1 ligands” (priority 2003, published 2005)

T1: recombinant endotheliase 1 (human), Q9UL52
T1 chain: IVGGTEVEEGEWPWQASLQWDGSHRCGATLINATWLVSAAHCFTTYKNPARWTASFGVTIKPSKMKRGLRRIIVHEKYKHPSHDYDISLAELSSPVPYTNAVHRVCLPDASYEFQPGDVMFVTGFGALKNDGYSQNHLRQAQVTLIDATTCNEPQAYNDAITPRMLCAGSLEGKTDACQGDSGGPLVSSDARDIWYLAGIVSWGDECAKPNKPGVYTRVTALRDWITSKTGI


Tests used:
[1] = molecular target: T1, recombinant endotheliase 1 (human), …; experiment: inhibition of ET1 activity
[2] = molecular target: T1, recombinant endotheliase 1 (human), …; experiment: cell-based or functional assay

Binder | Ki [1] [nM] | ET1 IC50 [2] [nM]
AGWPTCRGFWPDCGMMGT (modifications not checked) [DX-1135] | 100 to 1000 | 47
AGNYMCKGYWPDCKMTGT (modifications not checked) [DX-1133] | – | 350
AGVQHCESRDLPCLIKGT (modifications not checked) [DX-1051] | 100 to 1000 | 770
